Assay results from patent US20230227508A1, “SPLIT INTEIN-BASED SELECTION FOR PEPTIDE BINDERS” (priority 2020, published 2023).

Test system: Bacillus subtilis PY79
Experiment: Haloduracin agar spot assay on indicator strain
Type: cell-based
Conditions: 5 μL of cleaved, desalted core peptide in 1:1 methanol:water on LB-agar
Description: To assay for antimicrobial activity, the cleaved and desalted core peptides were resuspended in 50 μL 1:1 methanol:water. Bacillus subtilis PY79 was used as indicator strain and was spread on a LB-agar surface, on which 5 μL of either or both haloduracins or a solvent control was added.

B1: haloduracin A1 (peptide)
chain: MTNLLKEWKMPLERTHNNSNPAGDIFQELEDQDILAGVNGAENLYFQGCAWYNISCRLGNKGAYCTLTVECMPSCN
antibacterial activity, growth inhibition on agar: minimal antibacterial activity

B2: haloduracin A2 (peptide)
chain: MVNSKDLRNPEFRKAQGLQFVDEVNEKELSSLAGSENLYFQGTTWPCATVGVSVALCPTTKCTSQC
antibacterial activity, growth inhibition on agar: minimal antibacterial activity
